Laboratory results: paper PMC7427095 (2020)
Several values for one entry are separate records, joined by “and”; a condition that tells them apart may be missing. Equal entries are not always repeated.

What was measured:
[1] = molecular target: His6-HA4-AsLOV2 (SS58 insertion, C450V mutant) (Avena sativa); test: BLI; Octet RED96e; 6x-histidine tagged OptoMB variant loaded on Ni-NTA sensors, YFP-SH2 in solution at several concentrations; Buffer A (Tris 50 mM pH 8.0, NaCl 150 mM); illumination: 450 nm light (blue LED panel above the plate, lid open); binding and unbinding curves fitted together to a mass-action model; single experiments
[2] = molecular target: HA4-AsLOV2 (SS58 insertion, V416L mutant) (Avena sativa); test: as above
[3] = molecular target: His6-HA4-AsLOV2 (SS58 insertion, C450V mutant) (Avena sativa); test: BLI; Octet RED96e; 6x-histidine tagged OptoMB variant loaded on Ni-NTA sensors, YFP-SH2 in solution at several concentrations; Buffer A (Tris 50 mM pH 8.0, NaCl 150 mM); illumination: ambient (ambient laboratory light and the instrument's internal light sufficed to trigger the lit conformation of the light-sensitive constructs); binding and unbinding curves fitted together to a mass-action model; single experiments
[4] = molecular target: His6-SUMO-HA4-AsLOV2 (SS58 insertion, V416I, G528A, N538E mutant) (Avena sativa); test: as above
[5] = molecular target: His6-HA4-AsLOV2 (SS58 insertion): αSH2-OptoMB (Avena sativa); test: as above
[6] = molecular target: HA4-AsLOV2 (SS58 insertion, V416L mutant) (Avena sativa); test: as above
[7] = molecular target: T1, OptoMB_(C450V), His-tagged (Avena sativa, UniProt O49003 408-543, C450V); test: BLI; dark
[8] = molecular target: Monobody HA4 (6x-histidine tagged); test: BLI; Octet RED96e; His-tagged HA4 loaded on Ni-NTA sensors, YFP-SH2 in solution; Buffer A (Tris 50 mM pH 8.0, NaCl 150 mM); state of illumination not given ('–')
[9] = molecular target: T1, OptoMB_(C450V), His-tagged; test: BLI; dark; remark: listed apart in the source
[10] = molecular target: T2, OptoMB_(V416L), His-tagged (Avena sativa, UniProt O49003 408-543, V416L); test: BLI; light
[11] = molecular target: T1, OptoMB_(C450V), His-tagged; test: BLI; DARK conformation: Octet RED96e, no external light source; His-tagged OptoMB_(C450V) loaded on Ni-NTA sensors, YFP-SH2 in solution; Buffer A (Tris 50 mM pH 8.0, NaCl 150 mM)
[12] = molecular target: T2, OptoMB_(V416L), His-tagged; test: BLI; light; remark: listed apart in the source
[13] = molecular target: αSH2 OptoMonobody (OptoMB), His-tagged, wild-type AsLOV2 (Avena sativa) (UniProt O49003); test: BLI; LIGHT conformation: Octet RED96e with the lid open and a blue LED panel above the plate (for the V416I-G528A-N538E variant pre-illumination); His-tagged OptoMB variants loaded on Ni-NTA sensors, YFP-SH2 in solution; Buffer A (Tris 50 mM pH 8.0, NaCl 150 mM)
[14] = molecular target: T2, OptoMB_(V416L), His-tagged; test: as above

B1: YFP-SH2 (fusion of yellow fluorescent protein and the SH2 domain of human Abl kinase), purified (domain or fragment)
chain: SLEKHSWYHGPVSRNAAEYLLSSGINGSFLVRESESSPGQRSISLRYEGRVYHYRINTASDGKLYVSSESRFNTLAELVHHHSTVADGLITTLHYPAPKRNKPTVYGVSPNY
Kd [1]: 0.27 µM | koff [1]: 0.013 s⁻¹ | kon [1]: 48000 M⁻¹ s⁻¹ | Kd [2]: 60 µM and 42 µM | koff [2]: 0.2 s⁻¹ and 0.24 s⁻¹ | kon [2]: 3300 M⁻¹ s⁻¹ and 5800 M⁻¹ s⁻¹ | Kd [3]: 0.06 µM and 0.23 µM | koff [3]: 0.006 s⁻¹ and 0.013 s⁻¹ | kon [3]: 110000 M⁻¹ s⁻¹ and 56000 M⁻¹ s⁻¹ | Kd [4]: > 100 µM | kon [4]: < 1000 M⁻¹ s⁻¹ | Kd [5]: > 100 µM | kon [5]: < 1000 M⁻¹ s⁻¹ | Kd [6]: 87 µM | koff [6]: 0.25 s⁻¹ | kon [6]: 2900 M⁻¹ s⁻¹

B2: YFP-SH2, purified (fusion of YFP and the SH2 domain of human Abl kinase) (domain or fragment)
chain: SLEKHSWYHGPVSRNAAEYLLSSGINGSFLVRESESSPGQRSISLRYEGRVYHYRINTASDGKLYVSSESRFNTLAELVHHHSTVADGLITTLHYPAPKRNKPTVYGVSPNY
Kd [7]: 0.0569 µM | Kd [8]: 0.23 µM | koff [8]: 0.0145 s⁻¹ | kon [8]: 63100 M⁻¹ s⁻¹ | koff [9]: 0.00599 s⁻¹ | Kd [10]: 86.7 µM | Kd [11]: 0.19 µM | koff [11]: 0.01 s⁻¹ | kon [11]: 71000 M⁻¹ s⁻¹ | koff [12]: 0.254 s⁻¹ | Kd [13]: > 100 µM | kon [13]: < 1000 M⁻¹ s⁻¹ | Kd [14]: 63 µM | koff [14]: 0.23 s⁻¹ | kon [14]: 4000 M⁻¹ s⁻¹
